According to article PMC13087489:

Target: CsERF061 (Citrus sinensis? (blood orange), UniProt A0ACB8LNY5 1-312)
Assay: EMSA

B1: RE-mut-probe (dsDNA)
DNA 1: TGTCAAAAAAAAAAGCCACAAGGCAAATTCAAGTTG
DNA 2: CAACTTGAATTTGCCTTGTGGCTTTTTTTTTTGACA
- binding result: no binding
